Results published in patent US20060107351A1 (FLORIGENE, published 2006).

Target: the molecule itself
Experiment: self-association; SDS-PAGE under reducing (Mr 26,900) versus non-reducing (Mr 114,000) conditions

B1: Rtms-5 colored protein tagged with hexahistidine at its C-terminus (other)
chain: SVIATQMTYKVYMSGTVNGHYFEVEGDGKGKPYEGEQTVKLTVTKGGPLPFAWDILSPQCQYGSIPFTKYPEDIPDYVKQSFPEGFTWERIMNFEDGAVCTVSNDSSIQGNCFTYHVKFSGLNFPPNGPVMQKKTQGWEPHSERLFARGGMLIGNNFMALKLEGGGHYLCEFKTTYKAKKPVKMPGYHYVDRKLDVTNHNKDYTSVEQCEISIARKPVVAHHHHHH
notes: also called RTms-5.pep; Rtms5.pep
  binding result: binds
